Target: T1, IL-1R tl (Homo sapiens, UniProt P14778)
T1 construct: endogenous in cells; host or cells: Ishikawa cells
T1 sequence (P14778 18-569): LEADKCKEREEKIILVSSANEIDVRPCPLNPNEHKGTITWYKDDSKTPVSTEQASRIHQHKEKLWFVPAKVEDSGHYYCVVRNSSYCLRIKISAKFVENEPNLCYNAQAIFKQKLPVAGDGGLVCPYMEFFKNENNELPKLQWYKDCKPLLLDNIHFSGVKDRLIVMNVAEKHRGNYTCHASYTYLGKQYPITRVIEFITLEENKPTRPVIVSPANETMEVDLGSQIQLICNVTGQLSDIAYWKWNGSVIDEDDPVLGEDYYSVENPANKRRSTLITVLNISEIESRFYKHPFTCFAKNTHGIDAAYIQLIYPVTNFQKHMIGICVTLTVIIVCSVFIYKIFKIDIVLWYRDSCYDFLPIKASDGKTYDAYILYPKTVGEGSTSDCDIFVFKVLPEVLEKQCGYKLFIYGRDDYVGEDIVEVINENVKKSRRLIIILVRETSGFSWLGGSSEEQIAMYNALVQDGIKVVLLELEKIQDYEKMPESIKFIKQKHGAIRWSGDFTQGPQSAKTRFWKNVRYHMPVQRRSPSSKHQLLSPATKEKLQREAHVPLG
Assay: IL-1β and IL-1R tl inhibitors: effects on LIF-R levels in Ishikawa cells (Western blot)
Format: cell-based
Description: Primary human endometrial cells (ESC and EEC) were cultured for 5-9 days in DMEM-F12 medium containing 5% fetal bovine serum (FBS), 5 μg/ml insulin, 1% amphopthericin B, 100 μg/ml streptomycin and 100 U/ml penicillin until they were 80% confluent. Two types of endometrial epithelial cell lines, HES (originally derived from a benign proliferative endometrium) and Ishikawa (human endometrial epithelial adenocarcinoma, ECACC 9832301, Wiltshire, England) were cultured under the same conditions described above. The cells were washed twice with 100 mM phosphate saline buffer (PBS), pH 7.2 and cultured for additional 2 days in the same medium but without FBS (basal medium). Cells were washed as described before and cultured in basal medium containing leptin (0, 3, 10 or 62 nM) or IL-1β (0.6, 3 and 10 nM). […]
Endometrial cells were washed with ice-cold PBS and lysed by homogenization on ice with lysis buffer A [[…] Tris, pH 7.4, containing 137 nM NaCl, 2 mM EDTA, 10% glycerol, 50 mM β-glycerophosphate, 1% Nonidet P-40 and a mixture of proteases and phosphatase inhibitors composed of 100 μM antipain, 0.1 mg/ml trypsin inhibitor, protease inhibitor cocktail 1:50 (Sigma), 50 nM NaF, 2 mM phenyl-methylsulfonyl fluoride, and 2 mM sodium orthovanadate]. […] Protein concentrations were determined using the Bradford protein assay (BioRad Laboratories Inc., Hercules, Calif.). […]

Substance | LIF-R levels after IL-1β (IL-1β 3 and 10 nM, dose dependent) | effect on leptin-induced increase in LIF-R levels (IL-1Ra 1000 pg/ml or anti IL-1R tl antibody 20 μg/ml)
IL-1β: human recombinant IL-1β (R&D Systems) | increased the levels of LIF-R | 
IL-1Ra: human recombinant IL-1 receptor antagonist (R&D Systems), inhibitor of IL-1R tl |  | partially blocked

— patent US8058228B2, “Leptin peptide antagonists” (Boston Biomedical Research Institute, priority 2004, dated 2011)
